Data taken from article PMC3226476.
Where two headings read alike, the source gives them in different places.

Key:
Experiment in all cases: co-sedimentation
[1] = biological target: Taxol-stabilized microtubules (polymerized porcine brain tubulin) (porcine (purified from brain)) (UniProt P02550)
[2] = biological target: Taxol-stabilized microtubules (polymerized porcine brain tubulin) (porcine (purified from brain)) (UniProt P02550); remark: listed apart in the source
[3] = biological target: mDia1-FH1FH2C (mouse, amino acids 548-1255) (mouse) (UniProt O08808)
[4] = biological target: mDia2-FH1FH2C (mouse, 521-1171) (mouse) (UniProt Q9Z207)
[5] = biological target: INF2-FH1FH2 (human, 469-941) (human) (UniProt Q27J81)

| Substance | Kd [1] [µM] | stoichiometry N (tubulin dimer:formin dimer) [1] | other results |
| --- | --- | --- | --- |
| GST-INF2-Cterm (human CAAX variant, 941-1249) (from UniProt Q27J81 941-1249) (domain or fragment) | > 20 | – | – |
| GST-mDia1-Cterm (1149-1255) (from UniProt O08808 1149-1255) (domain or fragment) | > 20 | – | – |
| GST-mDia2-Cterm (1009-1171) (from UniProt Q9Z207 1009-1171) (domain or fragment) | 710 | 0.6 | Kd [2]: 0.71 µM |
| LatB-stabilized actin monomers (rabbit skeletal muscle actin) (from UniProt P68135 1-377) (natural protein) | – | – | percent of the actin in the pellet [3]: 10%; percent of the actin in the pellet [4]: 10%; percent of the actin in the pellet [5]: 10% |
| mDia1-FH1FH2C (mouse, amino acids 548-1255) (from UniProt O08808 548-1255) (domain or fragment) | – | 3.09 | – |
